In publication PMC9482650, “Quantitative fragmentomics allow affinity mapping of interactomes” (Nature Communications, 2022):

Tests used:
Experiment in all cases: holdup assay
Design in all cases: key: below the threshold = too weak to quantify, mostly under pKd 3.1 to 4
[1] = biological target: T1, SIPA1L2, Q9P2F8
T1 sequence (Q9P2F8 945-1036, limits assumed, looked up): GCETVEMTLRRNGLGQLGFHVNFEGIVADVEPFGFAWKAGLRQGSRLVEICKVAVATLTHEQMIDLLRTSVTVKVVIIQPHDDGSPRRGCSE

[2] = biological target: GRID2IP_1, A4D2P6
Sequence of GRID2IP_1, A4D2P6 (A4D2P6 1-87): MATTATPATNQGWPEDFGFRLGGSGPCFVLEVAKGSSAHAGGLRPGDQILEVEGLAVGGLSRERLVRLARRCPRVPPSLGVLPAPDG

[3] = biological target: TJP1_2, Q07157
Sequence of TJP1_2, Q07157 (Q07157 181-274): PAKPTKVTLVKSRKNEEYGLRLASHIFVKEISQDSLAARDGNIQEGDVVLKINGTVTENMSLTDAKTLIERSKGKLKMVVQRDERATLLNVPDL

[4] = biological target: T2, MPDZ_5, O75970
T2 sequence (O75970 695-796, limits assumed, looked up): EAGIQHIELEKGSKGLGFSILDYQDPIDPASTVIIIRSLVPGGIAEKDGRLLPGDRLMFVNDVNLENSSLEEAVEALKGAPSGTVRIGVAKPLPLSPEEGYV

[5] = biological target: T3, SNTB1, Q13884
T3 sequence (Q13884 107-205, limits assumed, looked up): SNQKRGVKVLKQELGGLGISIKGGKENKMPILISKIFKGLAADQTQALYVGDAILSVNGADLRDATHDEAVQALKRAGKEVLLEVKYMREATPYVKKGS

[6] = biological target: T4, DVL3, Q92997
T4 sequence (Q92997 244-331, limits assumed, looked up): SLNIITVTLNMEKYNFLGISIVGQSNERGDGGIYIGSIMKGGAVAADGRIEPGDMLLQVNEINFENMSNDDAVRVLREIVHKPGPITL

[7] = biological target: LNX1_2, Q8TBB1
Sequence of LNX1_2, Q8TBB1 (Q8TBB1 371-470): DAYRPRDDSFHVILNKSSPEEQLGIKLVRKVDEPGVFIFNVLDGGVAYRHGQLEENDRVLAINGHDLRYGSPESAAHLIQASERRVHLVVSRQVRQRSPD

[8] = biological target: FRMPD4, Q14CM0
Sequence of FRMPD4, Q14CM0 (Q14CM0 67-160): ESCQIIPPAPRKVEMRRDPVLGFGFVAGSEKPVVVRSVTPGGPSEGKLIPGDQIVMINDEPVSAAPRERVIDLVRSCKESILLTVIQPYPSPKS

[9] = biological target: T5, NHERF3_4, Q5T2W1
T5 sequence (Q5T2W1 373-468, limits assumed, looked up): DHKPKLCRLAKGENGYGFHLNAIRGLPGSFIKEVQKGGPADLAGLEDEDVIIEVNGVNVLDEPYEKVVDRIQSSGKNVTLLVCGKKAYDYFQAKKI

[10] = biological target: T6, GRIP1_5, Q9Y3R0
T6 sequence (Q9Y3R0 568-668, limits assumed, looked up): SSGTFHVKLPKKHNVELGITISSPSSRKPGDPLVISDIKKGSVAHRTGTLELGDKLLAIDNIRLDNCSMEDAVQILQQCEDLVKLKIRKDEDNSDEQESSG

[11] = biological target: PICK1, Q9NRD5
Sequence of PICK1, Q9NRD5 (Q9NRD5 17-115): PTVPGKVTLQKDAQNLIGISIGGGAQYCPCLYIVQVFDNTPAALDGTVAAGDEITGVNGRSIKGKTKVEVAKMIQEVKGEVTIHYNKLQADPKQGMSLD

[12] = biological target: GORASP1, Q9BQQ3
Sequence of GORASP1, Q9BQQ3 (Q9BQQ3 1-208): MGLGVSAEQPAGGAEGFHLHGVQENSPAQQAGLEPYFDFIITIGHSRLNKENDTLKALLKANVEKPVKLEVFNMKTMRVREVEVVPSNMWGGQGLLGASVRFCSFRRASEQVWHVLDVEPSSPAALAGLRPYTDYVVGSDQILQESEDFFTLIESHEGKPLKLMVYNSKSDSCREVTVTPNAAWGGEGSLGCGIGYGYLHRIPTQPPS

[13] = biological target: GORASP2, Q9H8Y8
[14] = biological target: SCRIB_2, Q14160
Sequence of SCRIB_2, Q14160 (Q14160 857-960): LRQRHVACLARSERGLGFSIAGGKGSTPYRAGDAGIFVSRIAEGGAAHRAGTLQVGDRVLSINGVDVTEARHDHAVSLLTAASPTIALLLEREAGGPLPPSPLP

[15] = biological target: GRIP2_3, Q9C0E4
Sequence of GRIP2_3, Q9C0E4 (Q9C0E4 238-339): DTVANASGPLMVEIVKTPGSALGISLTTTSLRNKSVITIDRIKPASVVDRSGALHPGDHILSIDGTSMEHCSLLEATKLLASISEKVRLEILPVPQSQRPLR

[16] = biological target: AHNAK1, Q09666
Sequence of AHNAK1, Q09666 (Q09666 4-100): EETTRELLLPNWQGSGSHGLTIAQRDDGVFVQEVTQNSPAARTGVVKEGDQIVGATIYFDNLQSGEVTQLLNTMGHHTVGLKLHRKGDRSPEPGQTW

[17] = biological target: MAGI3_2, Q5TCQ9
Sequence of MAGI3_2, Q5TCQ9 (Q5TCQ9 398-503): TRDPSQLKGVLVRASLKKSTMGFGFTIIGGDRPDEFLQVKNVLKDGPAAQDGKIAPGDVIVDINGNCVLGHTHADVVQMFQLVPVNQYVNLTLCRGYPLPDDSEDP

[18] = biological target: Inadl_2, Q8NI35
Sequence of Inadl_2, Q8NI35 (Q8NI35 238-335): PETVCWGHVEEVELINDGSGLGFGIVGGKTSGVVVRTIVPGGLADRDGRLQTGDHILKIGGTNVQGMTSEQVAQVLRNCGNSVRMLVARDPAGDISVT

[19] = biological target: T7, SHANK1, Q9Y566
T7 sequence (Q9Y566 658-767, limits assumed, looked up): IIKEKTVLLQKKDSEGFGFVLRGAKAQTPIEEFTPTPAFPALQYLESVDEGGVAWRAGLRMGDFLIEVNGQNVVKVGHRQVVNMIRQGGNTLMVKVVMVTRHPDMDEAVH

[20] = biological target: T8, DLG3_2, Q92796
T8 sequence (Q92796 221-321, limits assumed, looked up): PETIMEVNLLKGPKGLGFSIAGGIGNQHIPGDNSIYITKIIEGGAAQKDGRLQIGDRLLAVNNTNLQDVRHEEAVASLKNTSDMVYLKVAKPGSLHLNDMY

[21] = biological target: FRMPD2_3, Q68DX3
Sequence of FRMPD2_3, Q68DX3 (Q68DX3 1073-1166): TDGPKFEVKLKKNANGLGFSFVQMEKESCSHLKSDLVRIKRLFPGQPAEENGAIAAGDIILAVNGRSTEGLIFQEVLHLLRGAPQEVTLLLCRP

[22] = biological target: T9, DFNB31_3, Q9P202
T9 sequence (Q9P202 811-907, limits assumed, looked up): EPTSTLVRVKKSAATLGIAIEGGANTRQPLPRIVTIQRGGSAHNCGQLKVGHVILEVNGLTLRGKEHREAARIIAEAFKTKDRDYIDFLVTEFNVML

[23] = biological target: T10, LNX2_2, Q8N448
T10 sequence (Q8N448 334-432, limits assumed, looked up): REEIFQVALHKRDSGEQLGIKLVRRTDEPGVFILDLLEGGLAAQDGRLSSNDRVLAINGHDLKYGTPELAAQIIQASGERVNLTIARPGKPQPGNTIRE

[24] = biological target: T11, NHERF3_3, Q5T2W1
T11 sequence (Q5T2W1 238-333, limits assumed, looked up): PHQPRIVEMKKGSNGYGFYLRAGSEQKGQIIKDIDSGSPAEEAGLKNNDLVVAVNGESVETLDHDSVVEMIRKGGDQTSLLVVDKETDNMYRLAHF

[25] = biological target: T12, LIN7C, Q9NUP9
T12 sequence (Q9NUP9 88-185, limits assumed, looked up): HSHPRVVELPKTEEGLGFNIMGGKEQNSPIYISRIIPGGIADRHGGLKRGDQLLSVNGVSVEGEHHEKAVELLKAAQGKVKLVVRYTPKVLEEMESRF

[26] = plain residues with an end cap or a label only (N-terminal biotin on a linker: ado-ado)
[27] = plain residues with an end cap or a label only (N-terminal biotin on a linker: ahx)

B1: HTR2A, P28223 (peptide)
chain: DGVNEKVSCV
With B1 the pKd [1, 26] was “below the threshold”, the pKd [2, 26] was “below the threshold” and the pKd [3, 26] was “below the threshold”. For the same binder, the pKd [4, 26] was “below the threshold”, the pKd [5, 26] was 4.72 and the pKd [6, 26] was “below the threshold”. For the same binder, the pKd [7, 26] was “below the threshold”, the pKd [8, 26] was “below the threshold” and the pKd [9, 26] was “below the threshold”. For the same binder, the pKd [10, 26] was “below the threshold”, the pKd [11, 26] was “below the threshold” and the pKd [12, 26] was “below the threshold”. For the same binder, the pKd [13, 26] was 3.74, the pKd [14, 26] was 3.64 and the pKd [15, 26] was “below the threshold”. The pKd [16, 26] was “below the threshold”, the pKd [17, 26] was 4.47 and the pKd [18, 26] was “below the threshold”. For the same binder, the pKd [19, 26] was “below the threshold”, the pKd [20, 26] was 4.82 and the pKd [21, 26] was 3.53. The pKd [22, 26] was 3.88, the pKd [23, 26] was 4.42 and the pKd [24, 26] was “below the threshold”. For the same binder, the pKd [25, 26] was 3.78.

B2: CGN, Q9P2M7 (peptide)
chain: TESNLQTSSC
With B2 the pKd [1, 27] was “below the threshold”, the pKd [2, 27] was “below the threshold” and the pKd [3, 27] was “below the threshold”. For the same binder, the pKd [4, 27] was “below the threshold”, the pKd [5, 27] was “below the threshold” and the pKd [6, 27] was “below the threshold”. The pKd [7, 27] was “below the threshold”, the pKd [8, 27] was “below the threshold” and the pKd [9, 27] was “below the threshold”. The pKd [10, 27] was “below the threshold”, the pKd [11, 27] was “below the threshold” and the pKd [12, 27] was “below the threshold”. The pKd [13, 27] was “below the threshold”, the pKd [14, 27] was “below the threshold” and the pKd [15, 27] was “below the threshold”. For the same binder, the pKd [16, 27] was “below the threshold”, the pKd [17, 27] was “below the threshold” and the pKd [18, 27] was “below the threshold”. For the same binder, the pKd [19, 27] was “below the threshold”, the pKd [20, 27] was “below the threshold” and the pKd [21, 27] was “below the threshold”. For the same binder, the pKd [22, 27] was “below the threshold”, the pKd [23, 27] was “below the threshold” and the pKd [24, 27] was “below the threshold”. The pKd [25, 27] was “below the threshold”.

B3: KCNV1, Q6PIU1 (peptide)
chain: RSSGGDDFWF
For B3, the pKd [1, 26] was “below the threshold”, the pKd [2, 26] was “below the threshold” and the pKd [3, 26] was 5.12. For the same binder, the pKd [4, 26] was “below the threshold”, the pKd [5, 26] was “below the threshold” and the pKd [6, 26] was 3.64. For the same binder, the pKd [7, 26] was “below the threshold”, the pKd [8, 26] was 4.67 and the pKd [9, 26] was “below the threshold”. For the same binder, the pKd [10, 26] was “below the threshold”, the pKd [11, 26] was 4.01 and the pKd [12, 26] was “below the threshold”. The pKd [13, 26] was 4.21, the pKd [14, 26] was “below the threshold” and the pKd [15, 26] was “below the threshold”. For the same binder, the pKd [16, 26] was “below the threshold”, the pKd [17, 26] was “below the threshold” and the pKd [18, 26] was 4.28. For the same binder, the pKd [19, 26] was “below the threshold”, the pKd [20, 26] was 4.06 and the pKd [21, 26] was “below the threshold”. The pKd [22, 26] was 4.02, the pKd [23, 26] was 3.8 and the pKd [24, 26] was “below the threshold”. For the same binder, the pKd [25, 26] was 4.1.

B4: TIAM1, Q13009 (peptide)
chain: APSRKLNTEI
In the case of B4, the pKd [1, 27] is reported as “below the threshold”, the pKd [2, 27] is reported as “below the threshold” and the pKd [3, 27] is reported as “below the threshold”. For the same binder, the pKd [4, 27] was “below the threshold”, the pKd [5, 27] was “below the threshold” and the pKd [6, 27] was “below the threshold”. For the same binder, the pKd [7, 27] was “below the threshold”, the pKd [8, 27] was “below the threshold” and the pKd [9, 27] was “below the threshold”. The pKd [10, 27] was “below the threshold”, the pKd [11, 27] was “below the threshold” and the pKd [12, 27] was “below the threshold”. The pKd [13, 27] was “below the threshold”, the pKd [14, 27] was “below the threshold” and the pKd [15, 27] was “below the threshold”. For the same binder, the pKd [16, 27] was “below the threshold”, the pKd [17, 27] was “below the threshold” and the pKd [18, 27] was “below the threshold”. For the same binder, the pKd [19, 27] was “below the threshold”, the pKd [20, 27] was 3.72 and the pKd [21, 27] was “below the threshold”. For the same binder, the pKd [22, 27] was “below the threshold”, the pKd [23, 27] was “below the threshold” and the pKd [24, 27] was “below the threshold”. The pKd [25, 27] was “below the threshold”.
